Data taken from publication PMC10700650, “Enhancing the thermostability and activity of glycosyltransferase UGT76G1 via computational design” (Communications Chemistry, 2023).

B1: UGT76G1 (WT) (Stevia rebaudiana) (protein)
chain: MENKTETTVRRRRRIILFPVPFQGHINPILQLANVLYSKGFSITIFHTNFNKPKTSNYPHFTFRFILDNDPQDERISNLPTHGPLAGMRIPIINEHGADELRRELELLMLASEEDEEVSCLITDALWYFAQSVADSLNLRRLVLMTSSLFNFHAHVSLPQFDELGYLDPDDKTRLEEQASGFPMLKVKDIKSAYSNWQILKEILGKMIKQTKASSGVIWNSFKELEESELETVIREIPAPSFLIPLPKHLTASSSSLLDHDRTVFQWLDQQPPSSVLYVSFGSTSEVDEKDFLEIARGLVDSKQSFLWVVRPGFVKGSTWVEPLPDGFLGERGRIVKWVPQQEVLAHGAIGAFWTHSGWNSTLESVCEGVPMIFSDFGLDQPLNARYMSDVLKVGVYLENGWERGEIANAIRRVMVDEEGEYIRQNARVLKQKADVSLMKGGSSYESLESLVSYISSL

What was measured:
[1] = biological target: 76_4 (designed UGT76G1 variant) (Stevia rebaudiana, UniProt Q6VAB4, L101F/S192K/R297W/V300K/S305P/G348P, form not given); conditions: 1 mM UDPG; 0-300 uM ST; ST to RebA conversion; 2 min time course
purified protein = substrate: C=C1C[C@@]23CC[C@H]4[C@@](C)(CCC[C@@]4(C)C(=O)O[C@@H]4O[C@H](CO)[C@@H](O)[C@H](O)[C@H]4O)[C@@H]2CC[C@]1(O[C@@H]1O[C@H](CO)[C@@H](O)[C@H](O)[C@H]1O[C@@H]1O[C@H](CO)[C@@H](O)[C@H](O)[C@H]1O)C3; experiment: purified protein; conditions: 1 mM UDPG; 0-300 uM ST; ST to RebA conversion; 2 min time course

Chain of 76_4 (designed UGT76G1 variant) (Q6VAB4 12-458 L101F/S192K/R297W/V300K/S305P/G348P, form open): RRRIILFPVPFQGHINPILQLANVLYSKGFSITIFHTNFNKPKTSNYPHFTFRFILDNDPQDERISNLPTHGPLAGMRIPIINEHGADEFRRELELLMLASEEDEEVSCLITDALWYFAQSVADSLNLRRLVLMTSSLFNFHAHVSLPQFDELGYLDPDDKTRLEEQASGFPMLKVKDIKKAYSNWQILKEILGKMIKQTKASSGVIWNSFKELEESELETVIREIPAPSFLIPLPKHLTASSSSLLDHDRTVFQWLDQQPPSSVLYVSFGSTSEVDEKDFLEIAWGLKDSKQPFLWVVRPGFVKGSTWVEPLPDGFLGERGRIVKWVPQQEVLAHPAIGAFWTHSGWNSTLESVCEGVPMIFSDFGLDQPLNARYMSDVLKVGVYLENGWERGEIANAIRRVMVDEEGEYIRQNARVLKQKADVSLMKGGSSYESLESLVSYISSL

| Molecule | Km [1] [µM] | Km (purified protein) [µM] | kcat (purified protein) [min⁻¹] |
| --- | --- | --- | --- |
| C=C1C[C@@]23CC[C@H]4[C@@](C)(CCC[C@@]4(C)C(=O)O[C@@H]4O[C@H](CO)[C@@H](O)[C@H](O)[C@H]4O)[C@@H]2CC[C@]1(O[C@@H]1O[C@H](CO)[C@@H](O)[C@H](O)[C@H]1O[C@@H]1O[C@H](CO)[C@@H](O)[C@H](O)[C@H]1O)C3 [ST, stevioside] | 34.5 ± 3 | – | – |
| B1 | – | 92.0 ± 5.3 | 17.3 ± 1.6 |
